Paper PMC7460833, “Exploring the Role of Phenylalanine Residues in Modulating the Flexibility and Topography of the Active Site in the Peroxygenase Variant PaDa-I” (International Journal of Molecular Sciences, 2020)

Substrate: O=[N+]([O-])c1ccc2c(c1)OCO2
Test: purified protein
Type: biochemical, Cyclocybe aegerita
Conditions: H2O2 1 mM, potassium phosphate 50 mM pH 7.0, 20% v/v acetonitrile

Protein	Km	kcat	kcat/Km
PaDa-I (AaeUPO variant) (Cyclocybe aegerita; F119A/F354L/I291V/L110F/V100A/V118I) (protein, laboratory-evolved secreted variant; plasmid pJRoC30-PaDa-I in Saccharomyces cerevisiae BJ5465, purified; only F311L given; recalled mature changes V57A/L67F/V75I/I248V/F311L (plus signal peptide F12Y/A14V/R15G/A21D); heme-thiolate, N-glycosylated) EPGLPPGPLENSSAKLVNDEAHPWKPLRPGDIRGPCPGLNTLASHGYLPRNGVATPAQIINAVQEGFNFDNQAAIAATYAAHLVDGNLITDLLSIGRKTRLTGPDPPPPASVGGLNEHGTFEGDASMTRGDAFFGNNHDFNETLFEQLVDYSNRFGGGKYNLTVAGELRFKRIQDSIATNPNFSFVDFRFFTAYGETTFPANLFVDGRRDDGQLDMDAARSFFQFSRMPDDFFRAPSPRSGTGVEVVVQAHPMQPGRNVGKINSYTVDPTSSDFSTPCLMYEKFVNITVKSLYPNPTVQLRKALNTNLDFLFQGVAAGCTQVFPYGRD	1386 ± 176 µM	356 ± 30 s⁻¹	257000 M⁻¹ s⁻¹
PaDa-I (AaeUPO variant) (Cyclocybe aegerita; F119A/F234A/F354L/I291V/L110F/V100A/V118I) (protein, laboratory-evolved secreted variant; plasmid pJRoC30-PaDa-I in Saccharomyces cerevisiae BJ5465, purified; only F311L given; recalled mature changes V57A/L67F/V75I/I248V/F311L (plus signal peptide F12Y/A14V/R15G/A21D); heme-thiolate, N-glycosylated) EPGLPPGPLENSSAKLVNDEAHPWKPLRPGDIRGPCPGLNTLASHGYLPRNGVATPAQIINAVQEGFNFDNQAAIAATYAAHLVDGNLITDLLSIGRKTRLTGPDPPPPASVGGLNEHGTFEGDASMTRGDAFFGNNHDFNETLFEQLVDYSNRFGGGKYNLTVAGELRFKRIQDSIATNPNFSFVDFRFATAYGETTFPANLFVDGRRDDGQLDMDAARSFFQFSRMPDDFFRAPSPRSGTGVEVVVQAHPMQPGRNVGKINSYTVDPTSSDFSTPCLMYEKFVNITVKSLYPNPTVQLRKALNTNLDFLFQGVAAGCTQVFPYGRD	1389 ± 119 µM	258 ± 15 s⁻¹	186000 M⁻¹ s⁻¹
PaDa-I (AaeUPO variant) (Cyclocybe aegerita; F234A/F354L/I291V/L110F/V100A/V118I) (protein, laboratory-evolved secreted variant; plasmid pJRoC30-PaDa-I in Saccharomyces cerevisiae BJ5465, purified; only F311L given; recalled mature changes V57A/L67F/V75I/I248V/F311L (plus signal peptide F12Y/A14V/R15G/A21D); heme-thiolate, N-glycosylated) EPGLPPGPLENSSAKLVNDEAHPWKPLRPGDIRGPCPGLNTLASHGYLPRNGVATPAQIINAVQEGFNFDNQAAIFATYAAHLVDGNLITDLLSIGRKTRLTGPDPPPPASVGGLNEHGTFEGDASMTRGDAFFGNNHDFNETLFEQLVDYSNRFGGGKYNLTVAGELRFKRIQDSIATNPNFSFVDFRFATAYGETTFPANLFVDGRRDDGQLDMDAARSFFQFSRMPDDFFRAPSPRSGTGVEVVVQAHPMQPGRNVGKINSYTVDPTSSDFSTPCLMYEKFVNITVKSLYPNPTVQLRKALNTNLDFLFQGVAAGCTQVFPYGRD	525 ± 73 µM	279 ± 18 s⁻¹	531000 M⁻¹ s⁻¹
PaDa-I (AaeUPO variant) (Cyclocybe aegerita; F119L/F354L/I291V/L110F/V100A/V118I) (protein, laboratory-evolved secreted variant; plasmid pJRoC30-PaDa-I in Saccharomyces cerevisiae BJ5465, purified; only F311L given; recalled mature changes V57A/L67F/V75I/I248V/F311L (plus signal peptide F12Y/A14V/R15G/A21D); heme-thiolate, N-glycosylated) EPGLPPGPLENSSAKLVNDEAHPWKPLRPGDIRGPCPGLNTLASHGYLPRNGVATPAQIINAVQEGFNFDNQAAILATYAAHLVDGNLITDLLSIGRKTRLTGPDPPPPASVGGLNEHGTFEGDASMTRGDAFFGNNHDFNETLFEQLVDYSNRFGGGKYNLTVAGELRFKRIQDSIATNPNFSFVDFRFFTAYGETTFPANLFVDGRRDDGQLDMDAARSFFQFSRMPDDFFRAPSPRSGTGVEVVVQAHPMQPGRNVGKINSYTVDPTSSDFSTPCLMYEKFVNITVKSLYPNPTVQLRKALNTNLDFLFQGVAAGCTQVFPYGRD	890 ± 81 µM	454 ± 22 s⁻¹	510000 M⁻¹ s⁻¹
PaDa-I (AaeUPO variant) (Cyclocybe aegerita; F119L/F234A/F354L/I291V/L110F/V100A/V118I) (protein, laboratory-evolved secreted variant; plasmid pJRoC30-PaDa-I in Saccharomyces cerevisiae BJ5465, purified; only F311L given; recalled mature changes V57A/L67F/V75I/I248V/F311L (plus signal peptide F12Y/A14V/R15G/A21D); heme-thiolate, N-glycosylated) EPGLPPGPLENSSAKLVNDEAHPWKPLRPGDIRGPCPGLNTLASHGYLPRNGVATPAQIINAVQEGFNFDNQAAILATYAAHLVDGNLITDLLSIGRKTRLTGPDPPPPASVGGLNEHGTFEGDASMTRGDAFFGNNHDFNETLFEQLVDYSNRFGGGKYNLTVAGELRFKRIQDSIATNPNFSFVDFRFATAYGETTFPANLFVDGRRDDGQLDMDAARSFFQFSRMPDDFFRAPSPRSGTGVEVVVQAHPMQPGRNVGKINSYTVDPTSSDFSTPCLMYEKFVNITVKSLYPNPTVQLRKALNTNLDFLFQGVAAGCTQVFPYGRD	1552 ± 155 µM	332 ± 33 s⁻¹	214000 M⁻¹ s⁻¹
